Here are results for three molecules from patent US20080027001A1 (published 2008).

Experiment [1] addresses Recombinant MAG-Fc chimera (R&D Systems). The experiment in a line: cell-based or functional assay.
In experiment [2] the target is T1, mutant NgR1 EM7 (K277D/R279D) (human, UniProt Q9BZR6 27-447).
T1 construct: whole, on cells
T1 sequence (looked up): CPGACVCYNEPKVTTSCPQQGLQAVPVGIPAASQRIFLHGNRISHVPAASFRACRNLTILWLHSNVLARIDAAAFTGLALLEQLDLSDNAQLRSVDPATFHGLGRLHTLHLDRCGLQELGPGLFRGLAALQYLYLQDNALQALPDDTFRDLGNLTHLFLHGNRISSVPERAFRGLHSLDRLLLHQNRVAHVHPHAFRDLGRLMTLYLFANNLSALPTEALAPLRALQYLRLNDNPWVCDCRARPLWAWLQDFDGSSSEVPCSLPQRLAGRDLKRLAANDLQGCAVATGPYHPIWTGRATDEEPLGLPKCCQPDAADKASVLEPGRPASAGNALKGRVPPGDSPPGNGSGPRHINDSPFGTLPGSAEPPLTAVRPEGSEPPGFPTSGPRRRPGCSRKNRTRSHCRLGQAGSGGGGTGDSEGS
In words: Nogo-66-AP (10 µg/ml) on transfected COS-7 cells, AP luminescence. The procedure: (§1) The remaining cells were separately plated and assayed for surface expression of the NgR1 proteins by immunocytochemistry (Example 1.9) and for total NgR1 protein levels by Western blot analysis (Example 1.8). […] The next day, wells were rinsed once with HBAH (Hank's Balanced Salt Solution (HBSS) containing bovine serum albumin (0.5 mg/ml), NaN₃ (0.1%), and 20 mM HEPES pH 7.0) at room temperature followed by incubation with 100 μl of AP fusion protein (MAG-AP or Nogo-66-AP) diluted to a final concentration of 10 μg/ml in HBAH for 90 minutes. Wells were then washed six times with gentle shaking in HBAH at room temperature, five minutes each wash. Cells were then fixed with acetone-formaldehyde (60%-3%, in 20 mM HEPES, pH 7.0) for 15 seconds at room temperature, then washed three times for five minutes each with HBSS. Binding of AP-tagged ligands was measured using the Great EscAPe SEAP Kit (BD Biosciences) following the manufacturer's recommended protocol. Briefly, after aspirating HBSS, 60 μl of dilution buffer was added to each well, the plates were sealed, and then incubated at 65° C. for 90 min. Plates were cooled on ice and then 60 μl of assay buffer was added per well and incubated at room temperature for five minutes. Sixty microliters of diluted CSPD® substrate (Applied Biosystems, Foster City, Calif.) was then added per well, incubated for 10 minutes at room temperature, and then read on an LMAXII luminometer (Molecular Devices). Absolute binding numbers were corrected by subtracting average binding values obtained from mock-transfected controls. Binding was further corrected for sample-to-sample variations in transfection efficiency by normalizing to beta-galactosidase activity. Beta-galactosidase activity was measured using the luminescent beta-gal detection kit II (BD Biosciences) following the manufacturer's recommended protocol. Three independent binding experiments were conducted with six to eleven replicates per experiment. Background-subtracted, beta-galactosidase-corrected binding values were expressed relative to the wild type receptor.

For another experiment, the target named is T2, mutant NgR1 EM10 (K277A) (human, UniProt Q9BZR6 27-447).
T2 construct: whole, on cells
T2 sequence (looked up): T1 sequence (looked up) with D251A, D253R
Described as above. How it is done:
as §1

In experiment [3] the target is T3, mutant NgR1 EM8 (K277A, R279A) (human, UniProt Q9BZR6 27-447).
T3 construct: whole, on cells
T3 sequence (looked up): T1 sequence (looked up) with D251A, D253A
The description is as above. The procedure:
as §1

For experiment [4], the target named is T4, mutant NgR1 EM11 (R279A) (human, UniProt Q9BZR6 27-447).
T4 construct: whole, on cells
T4 sequence (looked up): T1 sequence (looked up) with D251K, D253A
Described as above. How it is done: as §1

For experiment [5], the target named is T1, mutant NgR1 EM7 (K277D/R279D). In words: MAG-AP (10 µg/ml) on transfected COS-7 cells, AP luminescence, corrected for background and transfection efficiency. How it is done: as §1
Experiment [6] concerns the target T3, mutant NgR1 EM8 (K277A, R279A). The experiment is described as above. How it is done:
as §1

Experiment [7] concerns the target T4, mutant NgR1 EM11 (R279A). Described as above. The procedure:
as §1

Changes are numbered by the printed parent chain. In names and notes the source's numbering stands. Bridges are numbered along the chain shown (N, C = ends).

B1: NRL2bA2 (N-Ac-CQKARGC-NH2) (peptide)
peptide: Ac-CQKARGC-NH2
modifications: disulfide 1-7 (inferred)
For the molecule B1, the “neurite outgrowth, MAG-Fc at 20 µg/ml: reduction of peptide efficacy against NRL2b” value in experiment [1] was about 2 fold.

B2: Nogo-66-AP(C47V) (ligand)
chain: IIPVEEENPDFWNREAAEALGAAKKLQPAQTAAKNLIIFLGDGMGVSTVTAARILKGQKKDKLGPEIPLAMDRFPYVALSKTYNVDKHVPDSGATATAYLCGVKGNFQTIGLSAAARFNQCNTTRGNEVISVMNRAKKAGKSVGVVTTTRVQHASPAGTYAHTVNRNWYSDADVPASARQEGCQDIATQLISNMDIDVILGGGRKYMFRMGTPDPEYPDDYSQGGTRLDGKNLVQEWLAKRQGARYVWNRTELMQASLDPSVTHLMGLFEPGDMKYEIHRDSTLDPSLMEMTEAALRLLSRNPRGFFLFVEGGRIDHGHHESRAYRALTETIMFDDAIERAGQLTSEEDTLSLVTADHSHVFSFGGYPLRGSSIFGLAPGKARDRKAYTVLLYGNGPGYVLKDGARPDVTESESGSPEYRQQSAVPLDEETHAGEDVAVFARGPQAHLVHGVQEQTFIAHVMAFAACLEPYTACDLAPPAGTTDAAHPGRIYKGVIQAIQKSDEGHPFRAYLESEVAISEELVQKYSNSALGHVNVTIKELRRLFLVDDLVDSLKHHHHHH
notes: Any secretion signal in front of AP is not described; also called alkaline phosphatase-labeled Nogo-66
On to B2, for which the binding result (in experiment [2]; with mutant NgR1 EM10 (K277A); in experiment [3]; with mutant NgR1 EM11 (R279A) [4]) was “binds” each time.

B3: MAG-AP (N-terminal human myelin associated glycoprotein amino acids 1-516, C-terminal alkaline phosphatase domain amino acids 23-511, six C-terminal histidine … (ligand)
chain: GHWGAWMPSSISAFEGTCVSIPCRFDFPDELRPAVVHGVWYFNSPYPKNYPPVVFKSRTQVVHESFQGRSRLLGDLGLRNCTLLLSNVSPELGGKYYFRGDLGGYNQYTFSEHSVLDIVNTPNIVVPPEVVAGTEVEVSCMVPDNCPELRPELSWLGHEGLGEPAVLGRLREDEGTWVQVSLLHFVPTREANGHRLGCQASFPNTTLQFEGYASMDVKYPPVIVEMNSSVEAIEGSHVSLLCGADSNPPPLLTWMRDGTVLREAVAESLLLELEEVTPAEDGVYACLAENAYGQDNRTVGLSVMYAPWKPTVNGTMVAVEGETVSILCSTQSNPDPILTIFKEKQILSTVIYESELQLELPAVSPEDDGEYWCVAENQYGQRATAFNLSVEFAPVLLLESHCAAARDTVQCLCVVKSNPEPSVAFELPSRNVTVNESEREFVYSERSGLVLTSILTLRGQAQAPPRVICTARNLYGAKSLELPFQGAHRLMWAKIGPIIPVEEENPDFWNREAAEALGAAKKLQPAQTAAKNLIIFLGDGMGVSTVTAARILKGQKKDKLGPEIPLAMDRFPYVALSKTYNVDKHVPDSGATATAYLCGVKGNFQTIGLSAAARFNQCNTTRGNEVISVMNRAKKAGKSVGVVTTTRVQHASPAGTYAHTVNRNWYSDADVPASARQEGCQDIATQLISNMDIDVILGGGRKYMFRMGTPDPEYPDDYSQGGTRLDGKNLVQEWLAKRQGARYVWNRTELMQASLDPSVTHLMGLFEPGDMKYEIHRDSTLDPSLMEMTEAALRLLSRNPRGFFLFVEGGRIDHGHHESRAYRALTETIMFDDAIERAGQLTSEEDTLSLVTADHSHVFSFGGYPLRGSSIFGLAPGKARDRKAYTVLLYGNGPGYVLKDGARPDVTESESGSPEYRQQSAVPLDEETHAGEDVAVFARGPQAHLVHGVQEQTFIAHVMAFAACLEPYTACDLAPPAGTTDAAHPGHHHHHH
notes: range 1-516;range 23-511; also called alkaline phosphatase-labeled MAG; MAG-AP fusion protein
As for B3, the “percent reduction in binding relative to wild type NgR1” value in experiment [5] stood at 57%; in experiment [6] it was 58%; with mutant NgR1 EM11 (R279A) [7] it was 36%.
